The record followed here is patent publication US20040253709A1.

The test deals with human IgE (human) (UniProt P01854). The experiment in a line: Western blots of His tag IPSE incubated with human IgE (100-100,000 ng/ml), compared with IgG; called competitive inhibition experiments in paragraph 33. (Immunoblotting shows a protein as a band on a membrane.)

For the substance recombinant His tag IPSE fusion protein, the fold higher affinity than to IgG worked out at 100 times.
